According to paper doi:10.1101/2020.07.08.194100:

Key:
[1] = biological target: GST-RhoA^N19 (inactive RhoA) (UniProt P61586); assay: pull-down
[2] = biological target: GST-RhoA^V14 (constitutively active RhoA) (UniProt P61586); assay: pull-down

- fold change of binding after PMA against vehicle control [1]: 2 fold
- fold change of binding after PMA against vehicle control [2]: 2 fold
Substance: HA-tagged wild-type diacylglycerol kinase ζ (HA-DGKζ) (enzyme)
